Assay results from publication PMC6200986.

Test system: YlxR (Bacillus subtilis 168)
Assay: EMSA
Details: 10 mM Tris-HCl pH 8.0, 100 mM KCl, 10 mM MgCl2, 1 mM DTT, 10% glycerol, 12 ul; 1% agarose gel in Tris-acetate-EDTA, loaded immediately after protein addition …

## pET28b(+) supercoiled
  Kd: 0.1 µM
